Measurements: patent US20240116985A1 (published 2024)
Blank lines part the entries; values can stand above or below the binder they belong to. Starred links: 1 amine or outer side, 2 acyl side, 3 side chain; linkers in the order of their positions; H or OH if unused. Positions of bridges follow the written chain, without caps; N, C: chain ends. Non-standard residues stand in square brackets, D forms with d. Primed or numbered codes have the meaning given here. PyrS2″ = (S)-3-amino-1-((pent-4-en-1-yloxy)carbonyl)pyrrolidine-3-carboxylic acid (stapling residue), C=CCCCOC(=O)N1CC[C@@](N[*:1])(C(=O)[*:2])C1; B5(4) = 2,2-bis(4-pentenyl)glycine = 2-amino-2-(pent-4-en-1-yl)hept-6-enoic acid (stitching residue), C=CCCCC(CCCC=C)(N[*:1])C(=O)[*:2]; B5(20) = 2-amino-2-(pent-4-en-1-yl)hept-6-enoic acid = bis(4-pentenyl)glycine, stitching residue, C=CCCCC(CCCC=C)(N[*:1])C(=O)[*:2]; B5(6) = 2-amino-2-(pent-4-en-1-yl)hept-6-enoic acid (bis(4-pentenyl)glycine), stitching residue, C=CCCCC(CCCC=C)(N[*:1])C(=O)[*:2]; TfeGA = (S)-2-amino-3-((carboxymethyl)(2,2,2-trifluoroethyl)amino)propanoic acid, O=C([C@H](CN(CC(=O)[*:3])CC(F)(F)F)N[*:1])[*:2]; PyrS2 = (S)-3-amino-1-((pent-4-en-1-yloxy)carbonyl)pyrrolidine-3-carboxylic acid, C=CCCCOC(=O)N1CC[C@@](N[*:1])(C(=O)[*:2])C1; B5(3) = 2,2-bis(4-pentenyl)glycine (stitching residue), C=CCCCC(CCCC=C)(N[*:1])C(=O)[*:2]; B5″ = 2,2-bis(4-pentenyl)glycine, stitching residue, C=CCCCC(CCCC=C)(N[*:1])C(=O)[*:2]; Phe(2-Cl) = N[C@@H](Cc1ccccc1Cl)C(=O)O; Bta = N[C@@H](Cc1csc2ccccc12)C(=O)O; αAllylPro = C=CC[C@@]1(C(=O)O)CCCN1; tBuAla = CC(C)(C)C[C@H](N)C(=O)O; 3Thi = N[C@@H](Cc1ccsc1)C(=O)O; Cha = N[C@@H](CC1CCCCC1)C(=O)O; S8 = C=CCCCCCC[C@](C)(N)C(=O)O; Thr(ol) = C[C@@H](O)[C@H](N)CO; Aib = CC(C)(N)C(=O)O

How the values were obtained:
[1] = target: T1, full-length beta-Catenin (Uniprot ID P35222) (Homo sapiens (Human), UniProt P35222 2-781); assay: AlphaScreen competition; peptide titrated against full-length beta-catenin + biotin-TCF4(10-53)
T1 construct: The assay protocols say only 'full-length'; No tag is stated, although the AlphaScreen kit is a Histidine (Nickel Chelate) kit; also called B-Catenin; bCat
T1 sequence: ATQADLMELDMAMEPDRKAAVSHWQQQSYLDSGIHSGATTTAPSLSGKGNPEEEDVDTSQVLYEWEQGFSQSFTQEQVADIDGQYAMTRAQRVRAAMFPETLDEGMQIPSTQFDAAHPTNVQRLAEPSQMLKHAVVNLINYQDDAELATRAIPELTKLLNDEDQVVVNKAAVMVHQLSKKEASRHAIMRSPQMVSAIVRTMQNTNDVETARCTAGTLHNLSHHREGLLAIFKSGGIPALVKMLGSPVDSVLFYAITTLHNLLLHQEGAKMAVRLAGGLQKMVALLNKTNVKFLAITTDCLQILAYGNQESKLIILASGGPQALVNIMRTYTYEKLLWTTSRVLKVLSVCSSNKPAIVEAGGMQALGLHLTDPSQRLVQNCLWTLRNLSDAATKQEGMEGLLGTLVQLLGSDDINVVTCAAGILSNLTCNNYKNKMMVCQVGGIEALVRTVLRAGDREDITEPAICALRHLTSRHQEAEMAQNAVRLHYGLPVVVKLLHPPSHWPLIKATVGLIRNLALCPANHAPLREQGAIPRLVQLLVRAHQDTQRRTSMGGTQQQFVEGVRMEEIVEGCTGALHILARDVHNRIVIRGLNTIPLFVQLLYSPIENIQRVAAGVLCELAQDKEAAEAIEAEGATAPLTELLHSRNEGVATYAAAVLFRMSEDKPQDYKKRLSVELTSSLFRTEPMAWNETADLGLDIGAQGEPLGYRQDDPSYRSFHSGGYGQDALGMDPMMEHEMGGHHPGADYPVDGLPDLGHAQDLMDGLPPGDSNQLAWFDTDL
Protocol: Equal volume of the titrated peptide was added to the plate and incubated for 15 minutes at 20° C. Then 4 uL of donor and 4 uL acceptor beads at 10 ug/mL were added to the plate, for a 16 uL reaction pool and protected from light for 60 minutes at 20° C. prior to read. Reads were performed on a CLARIOstar plate reader (BMG Labtech) in duplicate, and data were fitted to a 1:1 binding model with hill slope using an in-house script. All provided concentrations are final concentrations.

[2] = target: T2, B-cat-Halo (beta-catenin HaloTag construct expressed in HEK293 cells) (UniProt P35222 1-781); assay: cell-based or functional assay
T2 sequence (looked up): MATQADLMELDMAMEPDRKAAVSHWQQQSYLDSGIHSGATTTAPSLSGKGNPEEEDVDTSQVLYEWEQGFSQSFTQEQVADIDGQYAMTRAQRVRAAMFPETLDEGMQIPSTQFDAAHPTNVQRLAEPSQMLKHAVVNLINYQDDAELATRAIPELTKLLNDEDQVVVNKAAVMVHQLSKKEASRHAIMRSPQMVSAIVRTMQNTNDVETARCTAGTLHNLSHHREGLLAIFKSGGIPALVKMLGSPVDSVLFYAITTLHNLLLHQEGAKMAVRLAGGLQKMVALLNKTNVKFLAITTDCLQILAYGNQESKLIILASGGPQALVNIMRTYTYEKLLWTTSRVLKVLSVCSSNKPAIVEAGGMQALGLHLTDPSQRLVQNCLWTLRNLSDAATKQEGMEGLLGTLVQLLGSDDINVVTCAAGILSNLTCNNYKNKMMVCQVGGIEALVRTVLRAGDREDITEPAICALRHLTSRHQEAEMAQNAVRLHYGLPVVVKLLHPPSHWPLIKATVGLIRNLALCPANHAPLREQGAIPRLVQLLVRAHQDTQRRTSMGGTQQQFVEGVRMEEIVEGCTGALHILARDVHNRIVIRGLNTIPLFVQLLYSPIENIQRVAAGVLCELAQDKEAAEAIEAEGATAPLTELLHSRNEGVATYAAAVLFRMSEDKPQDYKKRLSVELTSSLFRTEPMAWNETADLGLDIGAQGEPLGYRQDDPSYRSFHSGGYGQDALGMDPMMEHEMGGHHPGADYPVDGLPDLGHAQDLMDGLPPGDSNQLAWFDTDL

[3] = target: T3, beta-catenin in TCF/LEF luciferase reporter cells (Homo sapiens (Human), UniProt P35222 1-781); assay: cell-based or functional assay
T3 sequence: T2 sequence (looked up)

[4] = target: T4, B-cat-Halo (NanoBRET construct expressed in HEK293 cells) (UniProt P35222 1-781); assay: cell-based or functional assay
T4 sequence (looked up): T2 sequence (looked up)

[5] = target: T5, full-length beta-Catenin (Uniprot ID P35222) (Homo sapiens (Human), UniProt P35222 1-781); assay: FP competition: full-length beta-catenin 10 nM + 5FAM-TCF4(10-53) 10 nM
T5 construct: also called bCat; B-Catenin
T5 sequence: T2 sequence (looked up)
Protocol: The plate was incubated protected from light for 60 minutes at 20° C. prior to read. Reads were performed on a CLARIOstar plate reader (BMG Labtech) in duplicate, and data were fitted to a 1:1 binding model with hill slope using an in-house script. All provided concentrations are final concentrations.

B-cat-Halo = target: T6, B-cat-Halo (UniProt P35222 1-781); assay: cell-based or functional assay
T6 sequence (looked up): T2 sequence (looked up)

- EC50 [1]: 10 µM
B1: I-350 (peptide)
peptide: XDAXADAAFVXFWQ
modifications: not fully specified; N-terminal Ac; C-terminal NH2; PL3 at 1, B5 at 4, S8 at 11 (stapled 1-4 and 4-11)
notes: Stapled peptide composition; Earlier-eluting isomer composition; also called Ac-PL3-Asp-Ala-B5-Ala-Asp-Ala-Ala-Phe-Val-S8-Phe-Trp-Gln-NH2

- NanoBRET Abs IC50 [2]: 17.2 µM
B2: I-1173 (peptide)
peptide: Ac-[αAllylPro]D[Cha][B5(4)]DTAAFT[PyrS2″][3Thi][Bta]Q-NH2
modifications: staple 1-4, 4-11

- TCF Reporter Assay Abs IC50 (uM), peptide + ST-Protein [3]: 0.2 µM
- TCF Reporter Assay Abs IC50 (uM), peptide only [3]: 5 µM
B3: I-922 (peptide)
peptide: Ac-[αAllylPro]D[tBuAla][B5(3)]D[TfeGA]AAFT[PyrS2″][Phe(2-Cl)][Bta]Q-NH2
modifications: staple 1-4, 4-11

- NanoBRET Abs IC50 [4]: 15.4 µM
B4: I-521 (peptide)
peptide: Ac-[αAllylPro]DI[B5(20)]DEAAFN[S8][3Thi][Bta]Q-NH2
modifications: staple 1-4, 4-11; also: later-eluting HPLC peak of staple isomers

- NanoBRET Abs IC50 [2]: 7.2 µM
B5: I-1188 (peptide)
peptide: Ac-[αAllylPro]D[tBuAla][B5″]DDAAFL[S8][3Thi][Bta]Q-NH2
modifications: staple 1-4, 4-11

- IC50 [5]: 0.025 µM
- NanoBRET Abs IC50 [4]: 8.9 µM
B6: I-506 (peptide)
peptide: Ac-[αAllylPro]DL[B5(6)]DEAAFQ[S8]F[Bta]H-NH2
modifications: staple 1-4, 4-11
notes: Stapled peptide composition

- NanoBRET Abs IC50 [2]: 16.2 µM
B7: I-1195 (peptide)
peptide: Ac-[αAllylPro]D[tBuAla][B5″]DDAAFL[S8][3Thi][Bta]H-NH2
modifications: staple 1-4, 4-11

- NanoBRET Abs IC50 (uM); B-cat-Halo / TCF4-Luc in HEK293 cells (B-cat-Halo): 9.1 µM
B8: I-1303 (peptide)
peptide: Ac-[αAllylPro]D[tBuAla][B5(4)]DDAAFF[PyrS2][3Thi][Bta][Thr(ol)]
modifications: staple 1-4, 4-11

- NanoBRET Abs IC50 [2]: 4.3 µM
B9: I-1177 (peptide)
peptide: Ac-[αAllylPro]D[tBuAla][B5(4)]DD[Aib]AFL[PyrS2″][3Thi][Bta]Q-NH2
modifications: staple 1-4, 4-11

- EC50 [1]: 7.19 µM
B10: I-349 (peptide)
peptide: XAAXDDAAFVXFWQ
modifications: not fully specified; N-terminal Ac; C-terminal NH2; PL3 at 1, B5 at 4, S8 at 11 (stapled 1-4 and 4-11)
notes: Stapled peptide composition; Later-eluting isomer composition; also called Ac-PL3-Ala-Ala-B5-Asp-Asp-Ala-Ala-Phe-Val-S8-Phe-Trp-Gln-NH2

- NanoBRET Abs IC50 [4]: 9.7 µM
B11: I-517 (peptide)
peptide: Ac-[αAllylPro]DI[B5(20)]DEAAFN[S8][3Thi][Bta]H-NH2
modifications: staple 1-4, 4-11

- EC50 [1]: 10 µM
B12: I-351 (peptide)
peptide: XDAXADAAFVXFWQ
modifications: not fully specified; N-terminal Ac; C-terminal NH2; PL3 at 1, B5 at 4, S8 at 11 (stapled 1-4 and 4-11)
notes: Stapled peptide composition; Later-eluting isomer composition; also called Ac-PL3-Asp-Ala-B5-Ala-Asp-Ala-Ala-Phe-Val-S8-Phe-Trp-Gln-NH2

- TCF Reporter Assay Abs IC50 (uM), peptide + ST-Protein [3]: 0.2 µM
- TCF Reporter Assay Abs IC50 (uM), peptide only [3]: 5 µM
B13: I-849 (peptide)
peptide: Ac-[αAllylPro]D[tBuAla][B5(3)]D[TfeGA]AAFL[PyrS2][3Thi][Bta]Q-NH2
modifications: staple 1-4, 4-11

- NanoBRET Abs IC50 [4]: 28.8 µM
B14: I-519 (peptide)
peptide: Ac-[αAllylPro]DA[B5(20)]DEAAFN[S8][3Thi][Bta]Q-NH2
modifications: staple 1-4, 4-11; also: later-eluting HPLC peak of staple isomers
